Experiments:
[1] = molecular target: Human Id1: Histidine (human) (UniProt P41134); test: sandwich ELISA, 5-3-coated wells, human Id1:His 10.0 ng/ml, detected with rabbit polyclonal B-5133-HRP
[2] = molecular target: Human Id1: Histidine (human) (UniProt P41134); test: sandwich ELISA, 5-3-coated wells, human Id1:His 0 ng/ml (blank), detected with rabbit polyclonal B-5133-HRP
[3] = molecular target: Human Id1: Histidine (human) (UniProt P41134); test: sandwich ELISA, 5-3-coated wells, human Id1:His 2.5 ng/ml, detected with rabbit polyclonal B-5133-HRP
[4] = molecular target: T1, Human Id3: Histidine (human, UniProt Q02535 1-119, limits assumed); test: ELISA, coated antigen, Ab 0.25 ug/ml
T1 construct: E. coli fusion protein (vector pGW07); also called h-Id3: His; not shown: His-tag
T1 sequence (looked up): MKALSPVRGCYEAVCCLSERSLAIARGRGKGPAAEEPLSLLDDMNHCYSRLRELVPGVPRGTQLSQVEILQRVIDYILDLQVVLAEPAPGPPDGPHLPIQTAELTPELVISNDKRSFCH
Protocol: (§1) Incubate plates at 2-8° C. overnight (16-24 hours). [0145] 11. Shake off the BSA solution. [0146] 12. Dispense 250 μL of 2.5% sucrose solution into each well. [0147] 13. Incubate plates at 2-8° C. for 4 hours. [0148] 14. Shake off sucrose solution. [0149] 15. Dry in vacuum at room temperature overnight. Screening Method [0150] 1. Dispense 100 μL of antibody diluent, diluted rabbit polyclonal anti-Id1 into appropriate wells. […] 2. Incubate at room temperature with mechanical shaking at 750 rpm for 90 minutes. [0152] 3. Remove the incubation mixture by flicking plate content into an appropriate waste container, followed by rinsing the wells 5 times with distilled water. […] 4. Strike the wells sharply onto absorbent paper or paper towels to remove all residual water droplets. [0154] 5. Dispense 100 μL of Goat Anti-Rabbit IgG-HRP Conjugate Reagent into each well. Gently mix for 5 seconds. [0155] 6. Incubate at room temperature with mechanical shaking at 750 rpm for 90 minutes. […] 7. Repeat procedures 3 and 4. [0157] 8. Dispense 100 μL of TMB Reagent into each well. Gently mix for 5 seconds. [0158] 9. Incubate at room temperature with mechanical shaking at 750 rpm for 20 minutes. [0159] 10. Add 100 μL of Stop Solution (1N HCl) into each well. [0160] 11. Gently mix for 10 seconds to ensure a complete mixing. […] 12. Read optical density (absorbance) at 450 nm. Results from this assay were used to select the rabbit sera with the highest antibodies titer that selectively reacts with mouse Id1 or human Id1 or both.
(§2) A comparison was carried out between the reactivity of the rabbit monoclonal anti-mouse Id1, clone #BCH-1/#37-2, of this invention and the mouse monoclonal anti-mouse/human Id1 from BD Pharmingen with the following antigens prepared in Example 5: mouse Id1:His, human Id1:His, human Id2:His, human Id3:His, and GST. These antigens and protein were used to coat the wells.
(§3) Materials and methods were those described in Example 9 except (a) Pharmingen's mouse monoclonal anti-mouse Id1 was used in addition to the rabbit monoclonal anti-mouse Id1 (Example 10), and (b) goat anti-mouse IgG-HRP conjugate was used to process the wells treated with the Pharmingen monoclonal antibody and polyclonal goat anti-rabbit IgG-HRP conjugate was used to process wells treated with rabbit monoclonal anti-mouse Id1.

[5] = molecular target: T2, Mouse Id1: Histidine (mouse, UniProt P20067-2 1-148); test: ELISA, coated antigen, Ab 1.00 ug/ml
T2 construct: E. coli fusion protein (vector pGW07); also called m-Id1-His; not shown: His-tag
T2 sequence: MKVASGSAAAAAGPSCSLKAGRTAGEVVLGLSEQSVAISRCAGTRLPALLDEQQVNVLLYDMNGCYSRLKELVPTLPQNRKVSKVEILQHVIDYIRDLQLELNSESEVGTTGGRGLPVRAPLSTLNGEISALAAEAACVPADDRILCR
Protocol: as §1, §2, §3

[6] = molecular target: T3, glutathione S-transferase (GST) (UniProt P08515 1-218 = GST); test: ELISA, coated antigen, Ab 1.00 ug/ml
T3 construct: Coated on wells as control for the fusion partner of the immunogen
T3 sequence (P08515 whole entry, the tested form may be a part): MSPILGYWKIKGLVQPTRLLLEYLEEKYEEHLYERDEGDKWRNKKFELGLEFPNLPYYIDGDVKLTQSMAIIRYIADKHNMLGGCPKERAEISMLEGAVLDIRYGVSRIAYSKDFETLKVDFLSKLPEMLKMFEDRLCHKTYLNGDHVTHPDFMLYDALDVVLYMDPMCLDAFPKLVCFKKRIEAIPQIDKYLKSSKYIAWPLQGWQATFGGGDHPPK
Protocol: as §1, §2, §3

[7] = molecular target: T4, Human Id2: Histidine (human, UniProt Q02363 1-134, limits assumed); test: ELISA, coated antigen, Ab 1.00 ug/ml
T4 construct: E. coli fusion protein (vector pGW07); also called h-Id2: His; not shown: His-tag
T4 sequence (looked up): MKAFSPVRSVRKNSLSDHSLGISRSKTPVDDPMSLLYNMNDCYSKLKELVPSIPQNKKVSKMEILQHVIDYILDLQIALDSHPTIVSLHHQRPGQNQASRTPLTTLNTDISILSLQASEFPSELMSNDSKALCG
Protocol: as §1, §2, §3

[8] = molecular target: T1, Human Id3: Histidine; test: ELISA, coated antigen, Ab 1.00 ug/ml
Protocol: as §1, §2, §3

[9] = molecular target: T2, Mouse Id1: Histidine; test: ELISA, coated antigen, Ab 2.50 ug/ml
Protocol: as §1, §2, §3

[10] = molecular target: T3, glutathione S-transferase (GST); test: ELISA, coated antigen, Ab 2.50 ug/ml
Protocol: as §1, §2, §3

[11] = molecular target: T4, Human Id2: Histidine; test: ELISA, coated antigen, Ab 2.50 ug/ml
Protocol: as §1, §2, §3

[12] = molecular target: T1, Human Id3: Histidine; test: ELISA, coated antigen, Ab 2.50 ug/ml
Protocol: as §1, §2, §3

[13] = molecular target: T2, Mouse Id1: Histidine; test: ELISA, coated antigen, Ab 0.50 ug/ml
Protocol: as §1, §2, §3

[14] = molecular target: T3, glutathione S-transferase (GST); test: ELISA, coated antigen, Ab 0.50 ug/ml
Protocol: as §1, §2, §3

[15] = molecular target: T4, Human Id2: Histidine; test: ELISA, coated antigen, Ab 0.50 ug/ml
Protocol: as §1, §2, §3

[16] = molecular target: T1, Human Id3: Histidine; test: ELISA, coated antigen, Ab 0.50 ug/ml
Protocol: as §1, §2, §3

[17] = molecular target: Human Id1: Histidine (human) (UniProt P41134); test: ELISA, coated antigen, Ab 1.00 ug/ml

Human Id1: Histidine (human), sequence (P41134 whole entry): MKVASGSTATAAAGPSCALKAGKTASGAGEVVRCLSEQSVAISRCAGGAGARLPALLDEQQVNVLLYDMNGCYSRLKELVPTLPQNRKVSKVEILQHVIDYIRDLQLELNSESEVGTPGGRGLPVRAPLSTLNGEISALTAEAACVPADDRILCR

In the case of “rabbit monoclonal anti-human Id1, clone #BCH-2/#5-3 (antibody)”, the A450 [1] is reported as 0.815 A450, the A450 [2] is reported as 0.046 A450 and the A450 [3] is reported as 0.244 A450.

B1: rabbit monoclonal anti-mouse Id1, clone #BCH-1/#37-2 (antibody, V domains shown)
VH: QSVEESGGRLVTPGTPLTLTCKVSGFDINSYAMDWFRQAPGKGLEWIGMMSTRGNTYYTSWAKGRFTISKTSSTTVDLKMTSLTTEDTATYFCARGGLWGPGTLVTVSS
VL: RVLTQTASPVSAAVGGTVTINCQASQSVYNGNRLGWYQLKPGQSPKELIHDASTLASGVPSRFRGSGSGTQFTLTINDVQCDDAATYYCVGSYACSTGDCNVFGGGTEVVVK
notes: Rabbit IgG from hybridoma, Protein G purified; also called m Id1 MoAb 37-2; Rabbit Monoclonal Anti-Mouse Id1 (#37-2)
Work on B1 yielded an A450 [4] of 0.047 A450, an A450 [5] of 2.88 A450 and an A450 [6] of 0.062 A450. The A450 [7] was 0.053 A450, the A450 [8] was 0.063 A450 and the A450 [9] was 3.16 A450. The A450 [10] was 0.068 A450, the A450 [11] was 0.07 A450 and the A450 [12] was 0.069 A450. For the same molecule, the A450 [13] was 2.46 A450, the A450 [14] was 0.053 A450 and the A450 [15] was 0.052 A450. The A450 [16] was 0.052 A450 and the A450 [17] was 0.113 A450.

Source: patent US20060286609A1 (BIOCHECK, published 2006)
